According to patent publication US20210261685A1 (Alector, published 2021):

What was measured:
Assay in all cases: SPR, Carterra LSA, antibody immobilised
[1] = target: T1, cyno MerTK extracellular domain (ECD), recombinant (cynomolgus monkey, UniProt Q12866 21-505 (human entry))
T1 construct: also called cynomolgus MerTK; not shown: polyHis tag or TEVS/Thrombin/murine IgG2a Fc tag
T1 chain: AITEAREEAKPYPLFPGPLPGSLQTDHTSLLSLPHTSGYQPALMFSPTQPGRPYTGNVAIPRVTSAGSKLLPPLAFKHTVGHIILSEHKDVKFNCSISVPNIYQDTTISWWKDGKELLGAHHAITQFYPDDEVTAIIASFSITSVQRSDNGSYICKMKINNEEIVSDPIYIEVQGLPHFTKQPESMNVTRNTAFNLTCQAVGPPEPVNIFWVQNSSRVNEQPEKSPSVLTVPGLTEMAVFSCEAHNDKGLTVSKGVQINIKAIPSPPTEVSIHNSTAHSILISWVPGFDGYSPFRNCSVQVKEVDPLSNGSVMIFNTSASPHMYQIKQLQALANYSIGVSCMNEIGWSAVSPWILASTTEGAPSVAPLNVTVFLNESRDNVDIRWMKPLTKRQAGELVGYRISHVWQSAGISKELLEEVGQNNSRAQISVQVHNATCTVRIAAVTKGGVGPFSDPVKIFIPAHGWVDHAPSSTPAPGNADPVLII
Experimental: (§1) Binding kinetics of human anti-MerTK IgG1 LALAPS antibodies of the present disclosure to human, cyno, and murine MerTK were evaluated using a Carterra LSA instrument (Carterra, Salt Lake City, Utah). Briefly, anti-MerTK antibodies were prepared by diluting to 10 μg/ml in 10 mM Acetate, pH 4.25 (Carterra), at 300 μl/well. A HC200M sensor chip (Carterra) was activated using the single channel flow cell with a 7-minute injection of a 1:1:1 mixture of 100 mM MES pH 5.5, 100 mM sulfo-NHS, 400 mM EDC (all reconstituted in MES pH 5.5; 100 μl of each mixed in vial immediately before running assay). After switching to the multi-channel array flow cell, the antibodies were injected over the activated chip in a 96-spot array for 15 minutes. The remaining unconjugated active groups on the chip were then blocked by injecting 1M Ethanolamine pH 8.5 (Carterra) for 7 minutes using the single channel flow cell.
(§2) After priming with running buffer (HBS-TE, Carterra) with 0.5 mg/ml BSA (Sigma), the immobilized anti-MerTK antibodies were tested for their ability to bind to several forms of recombinant MerTK extracellular domain, including human, cynomolgus, and mouse orthologs as described above. Estimates of affinity were generated by injecting each analyte over the entire antibody array using the single channel flow cell. MerTK analytes were diluted to 33.3, 100, and 300 nM in running buffer, and injected in serial from lowest to highest concentration without regeneration. Two buffer blanks were run between each series (one species per series). Data were processed and analyzed using NextGenKIT high-throughput kinetics analysis software (Carterra).
(§3) The equilibrium dissociation constants (KD) were then calculated from the fitted association and dissociation rate constants (k-on and k-off) for anti-MerTK antibodies of the present disclosure. Binding kinetic analysis was also performed on anti-MerTK antibodies H1 (BioLegend, Clone ID: 590H11G1E3), H2 (R&D systems, Clone ID: 125518), M6 (WO2016/106221), and CDX AB2000-A7 hIgG1 (WO2019/084307).

[2] = target: T2, murine MerTK extracellular domain (ECD), recombinant (mouse, UniProt Q60805 19-497)
T2 construct: also called moMerTK; mouse MerTK; not shown: polyHis tag or TEVS/Thrombin/murine IgG2a Fc tag
T2 sequence: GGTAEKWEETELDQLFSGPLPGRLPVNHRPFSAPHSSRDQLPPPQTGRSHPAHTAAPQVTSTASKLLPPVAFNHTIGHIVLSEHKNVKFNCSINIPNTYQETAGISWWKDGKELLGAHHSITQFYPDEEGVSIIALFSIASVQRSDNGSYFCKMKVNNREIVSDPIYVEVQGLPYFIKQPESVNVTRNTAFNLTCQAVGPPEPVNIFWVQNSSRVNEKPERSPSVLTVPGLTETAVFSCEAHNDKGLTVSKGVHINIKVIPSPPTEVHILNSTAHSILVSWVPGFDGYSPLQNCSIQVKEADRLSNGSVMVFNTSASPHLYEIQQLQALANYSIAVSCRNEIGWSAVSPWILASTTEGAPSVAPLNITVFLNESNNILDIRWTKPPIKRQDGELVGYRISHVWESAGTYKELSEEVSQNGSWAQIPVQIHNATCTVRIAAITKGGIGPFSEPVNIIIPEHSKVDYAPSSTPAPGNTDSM
Experimental: as §1, §2, §3

[3] = target: T3, human MerTK extracellular domain (ECD), recombinant (human, UniProt Q12866 21-505)
T3 construct: also called huMerTK; not shown: polyHis tag or TEVS/Thrombin/murine IgG2a Fc tag
T3 sequence: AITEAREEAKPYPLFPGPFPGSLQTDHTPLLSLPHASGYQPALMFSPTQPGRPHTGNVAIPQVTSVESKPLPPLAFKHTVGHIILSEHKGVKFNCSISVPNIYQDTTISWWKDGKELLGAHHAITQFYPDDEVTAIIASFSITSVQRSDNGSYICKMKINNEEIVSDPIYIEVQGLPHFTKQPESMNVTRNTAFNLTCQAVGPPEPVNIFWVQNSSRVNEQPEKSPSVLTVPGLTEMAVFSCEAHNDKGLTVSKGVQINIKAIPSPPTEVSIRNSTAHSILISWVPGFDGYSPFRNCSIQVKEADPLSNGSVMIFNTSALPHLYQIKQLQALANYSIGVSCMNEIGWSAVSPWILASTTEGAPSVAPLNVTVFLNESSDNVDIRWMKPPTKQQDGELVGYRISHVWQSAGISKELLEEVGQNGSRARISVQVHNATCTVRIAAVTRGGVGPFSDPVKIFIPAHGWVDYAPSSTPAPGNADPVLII
Experimental: as §1, §2, §3

B1: MTK-01 (antibody, human IgG1, V domains shown)
VH: QIQLVQSGPELKKPGETVKISCKASGYTFTNYGMNWVKQAPGKGLKCMGWINTYTGEPTYADDFKGRFAFSLETSATTAYLQINNLKNEDTATYFCARRDRYTWFAYWGQGTLVTVSA
VL: QIVLSQSPAILSASPGEKVTMTCRASSSVSYMHWYQQKPGSSPKPWIYATSNLASGVPARFSGSGSGTSYSLTISRVEAEDAATYYCQQWSSNPPTFGGGTKLEIK
In the case of B1, the Kd [1] is reported as 99 nM and the binding result [2] is reported as “no binding (tested: 300 nM)”.

B2: MTK-04 (antibody, human IgG1, V domains shown)
VH: QIQLVQSGPELKKPGETVKISCKASGYTFTNYGMNWVKQAPGKGLKCMGWINTYTGEPTYADDFKGRFAFSLETSASTAYLQINNLKNEDMATYFCAKYDNYAWFAYWGQGTLVTVSA
VL: QIVLSQSPAFLSASPGEKVTMTCRASSSVSYMHWYLQKPGSSPKPWIYATSNLASGVPVRFSGSGSGTSYSLTISRVEAEDAATYYCQQWSSNPRTFGGGTKLEIR
With B2 the Kd [3] was 33 nM, the Kd [1] was 44 nM and the binding result [2] was “no binding (tested: 300 nM)”.

B3: MTK-17 (antibody, human IgG1, V domains shown)
VH: QIQLVQSGPELKKPGETVKISCKASGYTFTNFGMNWVKQAPGKGLKWMGWINTYTGEPTYADDFKGRFAFSLETSASTAYLQINNLKNEDTATYFCSRGAVLRAGAMDCWGQGTSVTVSS
VL: DIQMTQSSSYLSVSLGGRVTITCKASDHINNWLAWYQQKPGNAPRLLISGATSLETGVPSRFSGSGSGKDYTLSITSLQTEDVATYYCQQYWSTPRTFGGGTKLEIK
With B3 the Kd [3] was 25 nM, the Kd [1] was 24 nM and the binding result [2] was “no binding (tested: 300 nM)”.

B4: MTK-20 (antibody, human IgG1, V domains shown)
VH: QIQLVQSGPELKKPGETVKISCKASGYTFTNYGMTWVKQAPGKGLKWMGWINTYTGEPTYADDFKGRFALSLETSASTAYLQINNLKNEDTATYFCARGGGRLGLRPLDYWGQGTTLTVSS
VL: DIQMTQTTSSLSASLGDRVTISCRASQDINNYLNWYQQKPDGTVKLLIYYTSRLHSGVPSRFSGSGSGTDYSLTISNLEQEDIATYFCQQGNTLPWTFGGGTKLEIK
In the case of B4, the Kd [3] is reported as 9.3 nM, the Kd [1] is reported as 9.2 nM and the binding result [2] is reported as “no binding (tested: 300 nM)”.

B5: MTK-18 (antibody, human IgG1, V domains shown)
VH: QIQLVQSGPELKKPGETVKISCKASGYTFTHYGMTWVKQAPGKGLKWMGWINTYTGEPTYADDFKGRFAFSLETSASTAYLQINNLKNEDTATYFCARGGGQLGLRPLDYWGQGTTLTVSS
VL: DIQMTQTTSSLSASLGDRVTFSCRASQAISNYLNWYQQKPDGTVKLLIYYTSRLHSGVPSRFSGSGSGTDYSLTISNLEQEDIATYFCQQGNTLPWTFGGGTKLEIK
With B5 the Kd [3] was 18 nM, the Kd [1] was 18 nM and the binding result [2] was “no binding (tested: 300 nM)”.

B6: MTK-21 (antibody, human IgG1, V domains shown)
VH: QIQLVQSGPELKKPGETVKISCKASGYTFTNFGMTWVRQAPGMDLKWMGWINTYTGEPKYADDFKGRFALSLETSASTAYLQITNFKNEDTATYFCARGGGRLGLRPLDYWGQGTTLTVSS
VL: DIQMTQTTSSLSASLGDRVTISCRASQDINNYLNWYQQKPDGTVKLLIYYTSSLHSGVPSRFSGSGSGTDYSLTITNLEQEDIATYFCQQGNTLPWTFGGGTRLEIK
B6 was tested, and the Kd [3] was 40 nM, the Kd [1] was 43 nM and the binding result [2] was “no binding (tested: 300 nM)”.

B7: MTK-19 (antibody, human IgG1, V domains shown)
VH: EVQLQQSGPELVKPGASVKISCKTSGYTFTEYTMHWVKQSHGKSLEWLGGFNPNNVITSYNQRFQGRATLTVDKSSSTAYMELRSLTSDDSAVYYCTRGDLLWSLLLPGNYFDYWGQGTTLTVSS
VL: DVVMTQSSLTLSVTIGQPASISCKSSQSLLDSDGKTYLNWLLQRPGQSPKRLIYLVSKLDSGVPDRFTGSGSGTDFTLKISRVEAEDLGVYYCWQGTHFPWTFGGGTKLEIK
For B7, the Kd [3] was 2.4 nM, the Kd [1] was 12 nM and the Kd [2] was 130 nM.

B8: MTK-33 (antibody, human IgG1, V domains shown)
VH: QVQLQQPGPELVRPGTSVKLSCKASGYTFTSYWMHWIKQRPGQGLEWIGVIDPSDNYINYNQKFKGKATLTVDTSSSTAYLQLSSLTSEDSAVYYCAREAGTRGYFDYWGQGTTLTVSS
VL: SIVMTQTPKFLLVSAGDRVIITCKASQSVSNTVAWYQQKPGQSPKLLIYYASNRYTGVPDRFTGSGYGTDFTFTISTVQAEDLAVYFCQQDYRSPFTFGSGTQLEMK
For B8, the Kd [3] was 6.5 nM, the Kd [1] was 6.6 nM and the Kd [2] was 75 nM.

B9: MTK-03 (antibody, human IgG1, V domains shown)
VH: DVQLQESGPGLVKPSQSLSLTCSVTGYSITSGYYWNWIRQFPGNTLEWMGYMSFDGDNKFNPSLKNRISITRDTSKNQFFLRLNSVTTEDTATYYCARGGYNYGSTEANWGQGTLVTVSA
VL: QIVLTQSPAIMSAFPGEKVTITCSASSSVNYMHWFQQKPGTSPKLWIYSTSNLASGVPARFSGSGSGTSYSLTISRMEAEDAATYYCQQRSSYPFTFGSGTKLEIK
For B9, the Kd [3] was 54 nM, the Kd [1] was 55 nM and the binding result [2] was “no binding (tested: 300 nM)”.

B10: MTK-07 (antibody, human IgG1, V domains shown)
VH: DVQLQESGPGLVKPSQSLSLTCSVTGYSITSGYYWNWIRQFPGNTLEWMGYMSFDGDNKFNPSLKNRISITRDTSKNQFFLRLNSVTTEDTATYYCARGGYNYGSTEANWGQGTLVTVST
VL: QIVLTQSPAIMSAFPGEKVTITCSASSSVTYMHWFQQKPGTSPKLWIFSTSNLASGVPARFSGSGSGTSYSLTISRMEAEDAATYYCQQRSSYPFTFGSGTKLEIK
For B10, the Kd [3] was 43 nM, the Kd [1] was 53 nM and the binding result [2] was “no binding (tested: 300 nM)”.

B11: MTK-05 (antibody, human IgG1, V domains shown)
VH: QVQLQQSGAELVQPGTSVRLSCKTSGYTFTSYWIQWVKQRPGQGLGWIGEIFPGTGTTYYNEKFKGKATLTIDTSSSTAYMQLSSLTSEDSAVYFCARDGAYFDVWGAGTTVTVSS
VL: DIQMTQSPASLSASVGETVTFTCRASENIFSYLAWYQQKQGKSPQLLVYNAKTLAEGVPSRFSGSGSGTHFSLKINSLQPEDFGSYYCLHHYGTPLTFGAGTKLELK
In the case of B11, the Kd [3] is reported as 6.7 nM, the binding result [1] is reported as “no binding (tested: 300 nM)” and the binding result [2] is reported as “no binding (tested: 300 nM)”.

B12: MTK-11 (antibody, human IgG1, V domains shown)
VH: QVQLKQSGPGLVQPSQSLSITCTVSGFSLTDYGVHWVRQSPGKGLEWLGVIWSSGTTDYNEAFISRLSISKDNSKSHVFFKMNSLQAIDTAIYYCARKGHDPYAMDYWGQGTSVTVSS
VL: QIVLTQSPAIMSASLGERVTMTCTASSSISSSYFHWYQQKPGSSPKLWIYSTSNLPSGVPARFSGSGSGTSYSLTISSMEAEDAATYYCHQYYRSPLTFGAGTKLELK
In the case of B12, the Kd [3] is reported as 3 nM, the Kd [1] is reported as 2.9 nM and the binding result [2] is reported as “no binding (tested: 300 nM)”.
